Experimental data reported in article PMC6715450 (Nature, 2019).

Molecular target: human apo-Calmodulin (cryo-EM complex) (human, UniProt P0DP23)
Test: cryo-EM structure

B1: full-length SidJ (cryo-EM complex) (enzyme)
chain: MFGFIKKVLDFFGVDQSEDNPSETAVETTDVSTKIKTTDTTQEESSVKTKTVVPTQPGGSVKPETIAPDQQKKHQIKTETTTSTTKQKGPKVTLMDGHVKQYYFARRGETSTHDTSLPPPVKVLSGRSIPLKEIPFEATRNELVQIYLTSIDKLIKSNKLNSIPSQQIASHYLFLRSLANSETDGIKKNQILSLAKPLGTYLASKEPHVWKMINELIEKSEYPIIHYLKNNRAHSNFMLALIHEYHKEPLTKNQSAFVQKFRDSSVFLFPNPIYTAWLAHSYDEDSSFNPMFRERLSTNFYHSTLTDNLLLRTEPKEVTLSSEHHYKKEKGPIDSSFRYQMSSDRLLRIQGRTLLFSTPQNDVVAVKVQKKGEPKSTLEEEFEMADYLLKHQRRLDVHSKLPQPLGQYSVKKSEILEISRGSLDFERFKTLIDDSKDLEVYVYKAPQSYFTYLHDKNQDLEDLTASVKTNVHDLFVLLREGIVFPQLADIFHTHFGEDEREDKGRYQALVQLLNVLQFQLGRIDKWQKAVEYVNLRSSGLADLGDSLPITSLFTSSDFTKHYFSELLTGGYHPTFFDKSSGTANSLFTGKRRLFGNYLYLNTIAEYLLVIQLTLGSYGDKVTRDMMDKPKKEAVWRELANVMFTSCAEAIHIMTGIPQSRALTLLKQRANIEKHFRQTQFWMTPDYSKLDEDTLQMEQYSIYSGEPEYEFTDKLVSGVGLSVDGVHQDLGGYNRESPLRELEKLLYATVTLIEGTMQLDKEFFKQLEQVEKILSGEIKTDANSCFEAVAQLLDLARPGCHFQKRLVLSYYEEAKLKYPSAPTDAYDSRFQVVARTNAAITIQRFWREARKNLSEKSDIDSEKPESERTTDKRL
B1: binds.
